This is an account of results in PMC4966956, “Analysis of the Bile Salt Export Pump (ABCB11) Interactome Employing Complementary Approaches” (PLoS ONE, 2016).

This experiment deals with T1, bile salt export pump (BSEP), purified, with C-terminal affinity tags (human, UniProt O95342 1-1321).
T1 construct: bile salt export pump (BSEP, ABCB11), human; construct pSGP18-2μ-BSEP; also called purified BSEP; pSGP18-2μ-BSEP; not shown: His tag (inferred from the removal of the tags on Ni-NTA), C-terminal, kept
Kind of experiment: pull-down; Strep-tagged partner immobilised on Strep-Tactin resin, detergent-solubilised purified BSEP added for 30 min at 4°C; 50 mM sodium phosphate pH 7, 150 mM NaCl, 20% glycerol, 0.022% DDM; immunoblot against BSEP and Strep-tag II. Conditions: both partners purified. For orientation: A western blot detects proteins with antibodies after separation by electrophoresis.

T1 sequence (O95342 whole entry): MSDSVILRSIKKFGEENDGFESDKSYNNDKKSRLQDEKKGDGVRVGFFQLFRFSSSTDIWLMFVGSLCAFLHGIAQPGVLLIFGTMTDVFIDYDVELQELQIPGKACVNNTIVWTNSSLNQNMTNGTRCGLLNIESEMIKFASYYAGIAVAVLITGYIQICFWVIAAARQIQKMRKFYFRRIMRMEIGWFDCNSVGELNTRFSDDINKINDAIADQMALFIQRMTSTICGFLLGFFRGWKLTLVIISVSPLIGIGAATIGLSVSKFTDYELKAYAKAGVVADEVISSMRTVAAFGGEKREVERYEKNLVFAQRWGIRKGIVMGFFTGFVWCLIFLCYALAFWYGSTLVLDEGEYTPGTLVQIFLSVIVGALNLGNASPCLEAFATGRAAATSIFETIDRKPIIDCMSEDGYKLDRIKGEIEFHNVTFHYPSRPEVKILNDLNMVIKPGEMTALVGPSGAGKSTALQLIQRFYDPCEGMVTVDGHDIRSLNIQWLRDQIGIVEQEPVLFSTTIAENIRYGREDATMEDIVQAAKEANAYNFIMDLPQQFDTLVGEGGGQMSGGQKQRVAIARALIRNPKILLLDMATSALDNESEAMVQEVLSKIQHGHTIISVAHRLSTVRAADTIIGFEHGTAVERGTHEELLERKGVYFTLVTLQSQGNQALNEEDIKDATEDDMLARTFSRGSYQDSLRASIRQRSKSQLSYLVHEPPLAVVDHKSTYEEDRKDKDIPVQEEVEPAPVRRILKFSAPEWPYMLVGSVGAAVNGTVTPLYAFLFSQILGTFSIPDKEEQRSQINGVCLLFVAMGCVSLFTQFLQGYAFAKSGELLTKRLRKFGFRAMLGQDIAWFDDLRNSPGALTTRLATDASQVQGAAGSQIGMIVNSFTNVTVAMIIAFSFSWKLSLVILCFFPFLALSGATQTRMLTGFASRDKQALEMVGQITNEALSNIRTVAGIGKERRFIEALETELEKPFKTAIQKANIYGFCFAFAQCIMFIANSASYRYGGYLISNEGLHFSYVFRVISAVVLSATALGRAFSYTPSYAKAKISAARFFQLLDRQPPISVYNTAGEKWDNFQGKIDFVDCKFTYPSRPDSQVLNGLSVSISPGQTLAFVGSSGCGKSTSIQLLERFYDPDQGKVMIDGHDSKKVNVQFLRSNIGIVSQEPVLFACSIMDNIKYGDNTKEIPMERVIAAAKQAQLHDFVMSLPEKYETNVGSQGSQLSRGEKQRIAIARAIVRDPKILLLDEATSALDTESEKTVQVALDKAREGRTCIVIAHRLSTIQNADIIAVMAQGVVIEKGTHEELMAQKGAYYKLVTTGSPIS

B1: BACS_(77-690), Strep-tagged, purified (domain or fragment, human, UniProt Q9Y2P5-1 77-690, looked up)
chain: PARLPPGLRWLPADVIFLAKILHLGLKIRGCLSRQPPDTFVDAFERRARAQPGRALLVWTGPGAGSVTFGELDARACQAAWALKAELGDPASLCAGEPTALLVLASQAVPALCMWLGLAKLGCPTAWINPHGRGMPLAHSVLSSGARVLVVDPDLRESLEEILPKLQAENIRCFYLSHTSPTPGVGALGAALDAAPSHPVPADLRAGITWRSPALFIYTSGTTGLPKPAILTHERVLQMSKMLSLSGATADDVVYTVLPLYHVMGLVVGILGCLDLGATCVLAPKFSTSCFWDDCRQHGVTVILYVGELLRYLCNIPQQPEDRTHTVRLAMGNGLRADVWETFQQRFGPIRIWEVYGSTEGNMGLVNYVGRCGALGKMSCLLRMLSPFELVQFDMEAAEPVRDNQGFCIPVGLGEPGLLLTKVVSQQPFVGYRGPRELSERKLVRNVRQSGDVYYNTGDVLAMDREGFLYFRDRLGDTFRWKGENVSTHEVEGVLSQVDFLQQVNVYGVCVPGCEGKVGMAAVQLAPGQTFDGEKLYQHVRAWLPAYATPHFIRIQDAMEVTSTFKLMKTRLVREGFNVGIVVDPLFVLDNRAQSFRPLTAEMYQAVCEGTWRL
notes: bile acyl-CoA synthetase (BACS, SLC27A5), human, residues 77-690, without the N-terminal membrane anchor, in pET-51b(+); vector pET-51b(+); also called BACS lacking its N-terminal membrane anchor; bile acyl-CoA synthetase; source: E. coli Rosetta (DE3) pLysS, purified (Strep-Tactin)
Take B1: the binding result was “binds”.
